± gives the uncertainty stated by the source.

In the supplement of paper PMC12042874 one finds amyloid nucleation score data, which are given here for 130 substances.

This data set is described as follows: amyloid nucleation score (Sup35N fusion, yeast selection) (log enrichment); library NNK3; higher = more nucleation; inactive = no reads after selection. Summed up:
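After 24 hours of induction with 100 μM copper sulfate, psi-negative yeast expressing peptides of 20 random codons fused to Sup35N were grown for 7 days at 30°C on medium lacking adenine and uracil. Input and output plasmid inserts were sequenced with Illumina, and sequences with under 100 input reads were discarded. Scores for nucleation are the DiMSum log enrichment of output over input reads, centred on the mode score of non-aggregating sequences.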
For the substance AACYINMCIGIVYGYSFLSF, the amyloid nucleation score was found to be 1.13 ± 0.087.

Regarding AAIYYLSRAECNFSRYKNYL, the amyloid nucleation score result is “inactive”.

AAMHLDILNGTATRLSYSCA: the amyloid nucleation score result is “inactive”.

For the substance AANLGRSIPESSRKGIGFNF, the amyloid nucleation score result was “inactive”.

On to ACCRSNDYDSYTPFDVVNHW, for which the amyloid nucleation score entry is “inactive”.

Take ACLLKSYFSRYNEKPTCYVT: the amyloid nucleation score result was “inactive”.

In the case of ACSDFSE, the amyloid nucleation score entry was “inactive”.

As to ACSRRERY, the amyloid nucleation score result was “inactive”.

For ACTFITRMYCGWHSS, the amyloid nucleation score entry was “inactive”.

Consider ACTIMWSSLKSIT, for which the amyloid nucleation score entry is “inactive”.

For ACTRYCWHYFVNIVWCESDF, the amyloid nucleation score entry is “inactive”.

With ACYFWS, the amyloid nucleation score result was “inactive”.

For the substance ADFTRGGT, the amyloid nucleation score result was “inactive”.

Consider ADKIRIRFY, for which the amyloid nucleation score result is “inactive”.

ADLRIRSSSCRPSADINFG: the amyloid nucleation score result is “inactive”.

ADPSMVNVICHGLSDRGSY: the amyloid nucleation score entry was “inactive”.

On to ADSLRCVSWFSD, for which the amyloid nucleation score entry was “inactive”.

Turning to ADTTCHFACKPKLDFLRKTT, the amyloid nucleation score entry is “inactive”.

For AELVNIF, the amyloid nucleation score result is “inactive”.

For the substance AENINCKMM, the amyloid nucleation score was 1.45 ± 0.12.

As to AENLVWRVMAYSARSTADYG, the amyloid nucleation score entry was “inactive”.

Turning to AESICALTML, the amyloid nucleation score result was “inactive”.

Regarding AEWWSTVCH, the amyloid nucleation score result was “inactive”.

Turning to AEWYIRITGDICLDPYLCKN, the amyloid nucleation score entry was “inactive”.

Take AFFSFNAD: the amyloid nucleation score entry was “inactive”.

Consider AFKWSRSCGMWLTDIGAWW, for which the amyloid nucleation score entry was “inactive”.

Regarding AFMVKYSSVLYVCNLALGRA, the amyloid nucleation score entry was “inactive”.

In the case of AFNVIRYVVWFSMVRASNAS, the amyloid nucleation score entry is “inactive”.

For AFYYWVDEMVSLNIRLSFYN, the amyloid nucleation score result was “inactive”.

As to AGDGHLSLS, the amyloid nucleation score entry was “inactive”.

Regarding AGFSVVSRPLFVRQLPV, the amyloid nucleation score result is “inactive”.

On to AGIRYTNYFSSMGSIGGDGV, for which the amyloid nucleation score entry is “inactive”.

AGPVMRRLFVNGWFVVFGRM: the amyloid nucleation score entry was “inactive”.

Consider AGSPCWSNHHYMTKRDCRFS, for which the amyloid nucleation score entry is “inactive”.

Take AHGEMRAVKPINFKACWRCL: the amyloid nucleation score result is “inactive”.

Take AHRLHSLINSLTLSNRSMM: the amyloid nucleation score entry is “inactive”.

For AHVLVSFCFSFTRSVKFGLV, the amyloid nucleation score entry is “inactive”.

AICAVPRTKMMIQRTSSNRS: the amyloid nucleation score result was “inactive”.

AIERIFHCGETVIFMTGHLL: the amyloid nucleation score result is “inactive”.

As for AIFHGIRCSFMSSSLYTNDG, the amyloid nucleation score result was “inactive”.

In the case of AIFRS, the amyloid nucleation score entry was “inactive”.

In the case of AIKVGASIINFLWLAHVWCP, the amyloid nucleation score entry is “inactive”.

As to AINVRRSLTTYPNFLDTVRS, the amyloid nucleation score result is “inactive”.

For AIYAYTFAKRPSCEQATRVS, the amyloid nucleation score result is “inactive”.

AKCMSDFVECRKSRRMMAGW: the amyloid nucleation score entry was “inactive”.

In the case of AKDMEGGQHNDGSDRRNERW, the amyloid nucleation score entry was “inactive”.

AKSKSIRERLVVFEASQTRY: the amyloid nucleation score entry is “inactive”.

As to AKYFKFKHNVKGVHWKHVPE, the amyloid nucleation score is -0.074 ± 0.53.

Consider AKYIEHGYCF, for which the amyloid nucleation score result is “inactive”.

For ALDIDWFYWYRHQSSPSFFY, the amyloid nucleation score result was “inactive”.

Take ALGTSEGRLQLSYDNHGVVL: the amyloid nucleation score result is “inactive”.

Substance ALHFDFIFIYRDRCCCCTFY came in with an amyloid nucleation score of 1.27 ± 0.1.

For ALMMRLFFRIRSTMCCWVCS, the amyloid nucleation score entry was “inactive”.

ALQLHWYYRDTRRRCFTVCV: the amyloid nucleation score result was “inactive”.

In the case of ALSVSSLALANDDVTG, the amyloid nucleation score entry was “inactive”.

Turning to ALYWTEYQ, the amyloid nucleation score result is “inactive”.

As for AMIINLRMWYNLRIIIMGTR, the amyloid nucleation score result is “inactive”.

Turning to AMNNAGSGKQEYNRYGEIIN, the amyloid nucleation score entry was “inactive”.

As to AMNNLLFTLYVF, the amyloid nucleation score result was “inactive”.

Turning to AMQAAPVCRRYAVVTTHFDH, the amyloid nucleation score entry is “inactive”.

Regarding AMSIVERQGDVWLSYRKWNG, the amyloid nucleation score result was “inactive”.

AMTRCGECGHRMGKASAGMW: the amyloid nucleation score result is “inactive”.

Take ANAISWGYLIKDYS: the amyloid nucleation score result was “inactive”.

For the substance ANCPMHRLTAGNSLCLWTW, the amyloid nucleation score stood at 1.69 ± 0.086.

On to ANCVALTIVSYQVARDMKSK, for which the amyloid nucleation score was determined as 1.36 ± 0.087.

For ANESMWYSLMLTVFVLAGCM, the amyloid nucleation score result is “inactive”.

Take ANGLWKRIAFEGTARCEGMG: the amyloid nucleation score entry is “inactive”.

As for ANTFVSSWFVTTNRQKTERG, the amyloid nucleation score entry is “inactive”.

Regarding ANVDTIDFASAVILF, the amyloid nucleation score result was “inactive”.

For APAKTYIACC, the amyloid nucleation score result is “inactive”.

Turning to APIKIRFD, the amyloid nucleation score result was “inactive”.

On to APRGVVLPWTLDIASSLLTP, for which the amyloid nucleation score entry is “inactive”.

As for APRLFINY, the amyloid nucleation score result is “inactive”.

ARASVFAMGDTPLWSG: the amyloid nucleation score result was “inactive”.

Regarding ARFLYAVVLRWFIMEYRAGT, the amyloid nucleation score entry was “inactive”.

Consider ARIFH, for which the amyloid nucleation score result is “inactive”.

On to ARIYCSWYPLYTFYLIHSH, for which the amyloid nucleation score was 0.644 ± 0.2.

In turn, ARLVAGCVMCHGSLWEMIRE registered an amyloid nucleation score of 0.572 ± 0.28.

In the case of ARNFLVRIWHCDRFSDCGII, the amyloid nucleation score entry is “inactive”.

Turning to ARPMIPMCLLQRAMYPLYSP, the amyloid nucleation score result was “inactive”.

As for ARRGLPVARIIFSHDPNL, the amyloid nucleation score result is “inactive”.

With ARWVWDIKETVTLV, the amyloid nucleation score entry was “inactive”.

As for ASAFYRCVGGIVYVHTIVGV, the amyloid nucleation score result was “inactive”.

For ASANLRILYLWTIGNVLNAY, the amyloid nucleation score result was “inactive”.

As to ASAYGSSLYSRFTVEYNSII, the amyloid nucleation score turned out to be 0.223 ± 0.38.

Regarding ASDGCSLRVAPVTQSPLWVS, the amyloid nucleation score result was “inactive”.

As to ASDNWESRPSRSSDKSGVIG, the amyloid nucleation score entry was “inactive”.

As to ASDRMKGVLNLLQYVGYSSM, the amyloid nucleation score result is “inactive”.

As for ASFISCSIMYYFIVFCL, the amyloid nucleation score result was “inactive”.

ASFYWECMYVHGDVFLCVWY: the amyloid nucleation score was determined as 1.79 ± 0.1.

Consider ASGLDIISSSNKLH, for which the amyloid nucleation score result was “inactive”.

With ASVYTN, the amyloid nucleation score entry was “inactive”.

In the case of ATGLWGICGWTPDTNHLQVM, the amyloid nucleation score result is “inactive”.

With ATICYEVRWEPDSSPGRS, the amyloid nucleation score entry was “inactive”.

The substance ATTVNGFIISHRVYNAGSWY had an amyloid nucleation score of 1.28 ± 0.1.

In the case of AVALY, the amyloid nucleation score entry was “inactive”.

AVCPSISTLSCGQ returned an amyloid nucleation score of -0.055 ± 0.82.

In the case of AVCWLRMTYGLRLEVGSPVD, the amyloid nucleation score result was “inactive”.

With AVDQGGLAYRGRRC, the amyloid nucleation score result is “inactive”.

As to AVLHNMGFSHILAQLV, the amyloid nucleation score result was “inactive”.

Regarding AVNPRQFKFTVDEKSIGRVA, the amyloid nucleation score entry is “inactive”.

Substance AVSSVLIHALYLVGMLPPSN came in with an amyloid nucleation score of 1.83 ± 0.092.

In turn, AVVLFLGTLQLGCLGLIVQL came in with an amyloid nucleation score of -0.424 ± 0.75.

In turn, AVWYRNI returned an amyloid nucleation score of 2.06 ± 0.057.

Regarding AWISGHVRVKLSFRLTFFLK, the amyloid nucleation score result is “inactive”.

AWKLKFFVFNSLSVIT: the amyloid nucleation score result is “inactive”.

Regarding AWKTLAHRQSWGGCNRA, the amyloid nucleation score entry was “inactive”.

Consider AWLSLVCVDVGTTPFSHNDR, for which the amyloid nucleation score entry is “inactive”.

With AWTTQPPYMFSSGFWNFYVC, the amyloid nucleation score entry is “inactive”.

For the substance AYCPKTALEVY, the amyloid nucleation score result was “inactive”.

With AYCVFHSIYGV, the amyloid nucleation score entry was “inactive”.

As for AYIKWNVDCRLKTHNDGYFL, the amyloid nucleation score result is “inactive”.

Consider AYLLSIANCFSAVYLHPSDS, for which the amyloid nucleation score was 0.216 ± 0.56.

On to AYNQSRILGVDLACRNELLC, for which the amyloid nucleation score entry was “inactive”.

For the substance AYNSYELVRAL, the amyloid nucleation score entry was “inactive”.

Take AYRVVQTGDLHGRCAWIVNV: the amyloid nucleation score was 0.088 ± 0.88.

As for AYSYRGHGLGMDGAGPVCLI, the amyloid nucleation score result was “inactive”.

On to AYWESNSIPR, for which the amyloid nucleation score result is “inactive”.

As to CAESIRHRRP, the amyloid nucleation score result is “inactive”.

On to CAITAQARV, for which the amyloid nucleation score entry was “inactive”.

Turning to CALYFVWAWWERRRKMYYA, the amyloid nucleation score entry is “inactive”.

On to CAMTLRTFFQPPPITTSKYC, for which the amyloid nucleation score entry was “inactive”.

As for CAVYFLR, the amyloid nucleation score result is “inactive”.

In turn, CCGMYYNSMASNVWSER had an amyloid nucleation score of 2.17 ± 0.084.

As to CCHSITFLVNLGMRERKNKV, the amyloid nucleation score entry was “inactive”.

For CCIKGHFPSSFGSWAKYLHV, the amyloid nucleation score entry is “inactive”.

Consider CCLPSYSVGCRASGDDSW, for which the amyloid nucleation score entry is “inactive”.

CCLYTVNNSDSLVNTTVGVG: the amyloid nucleation score result was “inactive”.

Substance CCNFWRMPMTLCRNSCSSST had an amyloid nucleation score of 0.718 ± 0.17.

For the substance CCRDVYTEGDM, the amyloid nucleation score entry is “inactive”.
